In IntAct's records for PubMed 31515488:

B1: Vacuolar-sorting protein SNF8 (Homo sapiens), Q96H20 (parent)
chain: MHRRGVGAGAIAKKKLAEAKYKERGTVLAEDQLAQMSKQLDMFKTNLEEFASKHKQEIRKNPEFRVQFQDMCATIGVDPLASGKGFWSEMLGVGDFYYELGVQIIEVCLALKHRNGGLITLEELHQQVLKGRGKFAQDVSQDDLIRAIKKLKALGTGFGIIPVGGTYLIQSVPAELNMDHTVVLQLAEKNGYVTVSEIKASLKWETERARQVLEHLLKEGLAWLDLQAPGEAHYWLPALFTDLYSQEITAEEAREALP
partner: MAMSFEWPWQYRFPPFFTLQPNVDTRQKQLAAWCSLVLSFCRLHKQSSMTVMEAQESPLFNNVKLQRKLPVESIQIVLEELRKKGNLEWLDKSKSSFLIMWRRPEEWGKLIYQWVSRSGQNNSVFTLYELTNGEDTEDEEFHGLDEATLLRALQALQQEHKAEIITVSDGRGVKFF
B2: Zinc finger protein 473 (Homo sapiens), Q8WTR7 (parent)
chain: MAEEFVTLKDVGMDFTLGDWEQLGLEQGDTFWDTALDNCQDLFLLDPPRPNLTSHPDGSEDLEPLAGGSPEATSPDVTETKNSPLMEDFFEEGFSQEIIEMLSKDGFWNSNFGEACIEDTWLDSLLGDPESLLRSDIATNGESPTECKSHELKRGLSPVSTVSTGEDSMVHNVSEKTLTPAKSKEYRGEFFSYSDHSQQDSVQEGEKPYQCSECGKSFSGSYRLTQHWITHTREKPTVHQECEQGFDRNASLSVYPKTHTGYKFYVCNEYGTTFSQSTYLWHQKTHTGEKPCKSQDSDHPPSHDTQPGEHQKTHTDSKSYNCNECGKAFTRIFHLTRHQKIHTRKRYECSKCQATFNLRKHLIQHQKTHAAKTTSECQECGKIFRHSSLLIEHQALHAGEEPYKCNERGKSFRHNSTLKIHQRVHSGEKPYKCSECGKAFHRHTHLNEHRRIHTGYRPHKCQECVRSFSRPSHLMRHQAIHTAEKPYSCAECKETFSDNNRLVQHQKMHTVKTPYECQECGERFICGSTLKCHESVHAREKQGFFVSGKILDQNPEQKEKCFKCNKCEKTFSCSKYLTQHERIHTRGVKPFECDQCGKAFGQSTRLIHHQRIHSRVRLYKWGEQGKAISSASLIKLQSFHTKEHPFKCNECGKTFSHSAHLSKHQLIHAGENPFKCSKCDRVFTQRNYLVQHERTHARKKPLVCNECGKTFRQSSCLSKHQRIHSGEKPYVCDYCGKAFGLSAELVRHQRIHTGEKPYVCQECGKAFTQSSCLSIHRRVHTGEKPYRCGECGKAFAQKANLTQHQRIHTGEKPYSCNVCGKAFVLSAHLNQHLRVHTQETLYQCQRCQKAFRCHSSLSRHQRVHNKQQYCL
partner: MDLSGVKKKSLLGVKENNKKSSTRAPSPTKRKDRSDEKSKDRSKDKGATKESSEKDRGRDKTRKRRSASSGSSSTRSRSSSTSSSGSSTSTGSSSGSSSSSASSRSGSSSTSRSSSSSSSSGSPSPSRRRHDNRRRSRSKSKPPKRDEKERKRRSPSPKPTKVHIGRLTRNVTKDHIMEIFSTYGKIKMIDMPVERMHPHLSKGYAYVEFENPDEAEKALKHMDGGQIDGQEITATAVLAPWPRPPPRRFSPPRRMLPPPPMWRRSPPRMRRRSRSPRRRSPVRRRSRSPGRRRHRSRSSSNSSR
B3: Calcium-binding and coiled-coil domain-containing protein 2 (Homo sapiens), Q13137 (parent)
chain: MEETIKDPPTSAVLLDHCHFSQVIFNSVEKFYIPGGDVTCHYTFTQHFIPRRKDWIGIFRVGWKTTREYYTFMWVTLPIDLNNKSAKQQEVQFKAYYLPKDDEYYQFCYVDEDGVVRGASIPFQFRPENEEDILVVTTQGEVEEIEQHNKELCKENQELKDSCISLQKQNSDMQAELQKKQEELETLQSINKKLELKVKEQKDYWETELLQLKEQNQKMSSENEKMGIRVDQLQAQLSTQEKEMEKLVQGDQDKTEQLEQLKKENDHLFLSLTEQRKDQKKLEQTVEQMKQNETTAMKKQQELMDENFDLSKRLSENEIICNALQRQKERLEGENDLLKRENSRLLSYMGLDFNSLPYQVPTSDEGGARQNPGLAYGNPYSGIQESSSPSPLSIKKCPICKADDICDHTLEQQQMQPLCFNCPICDKIFPATEKQIFEDHVFCHSL
partner: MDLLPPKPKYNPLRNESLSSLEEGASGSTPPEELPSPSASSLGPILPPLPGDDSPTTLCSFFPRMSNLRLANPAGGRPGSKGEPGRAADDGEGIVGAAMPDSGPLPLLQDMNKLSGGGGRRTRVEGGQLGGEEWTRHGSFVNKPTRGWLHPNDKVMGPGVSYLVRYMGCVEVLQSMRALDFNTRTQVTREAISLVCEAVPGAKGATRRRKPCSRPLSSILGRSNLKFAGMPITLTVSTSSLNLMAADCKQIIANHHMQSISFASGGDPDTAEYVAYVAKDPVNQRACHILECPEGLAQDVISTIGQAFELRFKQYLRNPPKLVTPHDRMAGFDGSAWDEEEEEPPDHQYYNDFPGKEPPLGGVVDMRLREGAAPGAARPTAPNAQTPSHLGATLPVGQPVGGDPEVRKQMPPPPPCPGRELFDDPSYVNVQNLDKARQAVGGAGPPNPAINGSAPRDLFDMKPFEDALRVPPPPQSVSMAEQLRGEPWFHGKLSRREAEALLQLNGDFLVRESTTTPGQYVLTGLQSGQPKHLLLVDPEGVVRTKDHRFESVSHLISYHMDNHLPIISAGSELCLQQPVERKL
B4: Protein LDOC1 (Homo sapiens), O95751 (parent)
chain: MVDELVLLLHALLMRHRALSIENSQLMEQLRLLVCERASLLRQVRPPSCPVPFPETFNGESSRLPEFIVQTASYMLVNENRFCNDAMKVAFLISLLTGEAEEWVVPYIEMDSPILGDYRAFLDEMKQCFGWDDDEDDDDEEEEDDY
partner: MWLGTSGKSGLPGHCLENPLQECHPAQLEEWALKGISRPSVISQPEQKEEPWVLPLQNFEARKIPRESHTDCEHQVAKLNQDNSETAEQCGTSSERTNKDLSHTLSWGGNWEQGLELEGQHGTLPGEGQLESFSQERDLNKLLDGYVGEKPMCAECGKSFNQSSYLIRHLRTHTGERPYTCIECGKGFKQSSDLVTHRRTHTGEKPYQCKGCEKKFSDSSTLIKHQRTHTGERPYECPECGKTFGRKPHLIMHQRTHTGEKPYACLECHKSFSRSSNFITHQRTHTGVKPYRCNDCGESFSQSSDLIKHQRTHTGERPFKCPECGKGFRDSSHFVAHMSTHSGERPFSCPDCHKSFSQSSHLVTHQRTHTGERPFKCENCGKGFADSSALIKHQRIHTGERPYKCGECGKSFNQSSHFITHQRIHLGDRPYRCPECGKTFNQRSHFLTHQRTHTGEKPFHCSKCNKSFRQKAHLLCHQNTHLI
B5: Annexin A10 (Homo sapiens), Q9UJ72 (parent)
chain: MFCGDYVQGTIFPAPNFNPIMDAQMLGGALQGFDCDKDMLINILTQRCNAQRMMIAEAYQSMYGRDLIGDMREQLSDHFKDVMAGLMYPPPLYDAHELWHAMKGVGTDENCLIEILASRTNGEIFQMREAYCLQYSNNLQEDIYSETSGHFRDTLMNLVQGTREEGYTDPAMAAQDAMVLWEACQQKTGEHKTMLQMILCNKSYQQLRLVFQEFQNISGQDMVDAINECYDGYFQELLVAIVLCVRDKPAYFAYRLYSAIHDFGFHNKTVIRILIARSEIDLLTIRKRYKERYGKSLFHDIRNFASGHYKKALLAICAGDAEDY
partner: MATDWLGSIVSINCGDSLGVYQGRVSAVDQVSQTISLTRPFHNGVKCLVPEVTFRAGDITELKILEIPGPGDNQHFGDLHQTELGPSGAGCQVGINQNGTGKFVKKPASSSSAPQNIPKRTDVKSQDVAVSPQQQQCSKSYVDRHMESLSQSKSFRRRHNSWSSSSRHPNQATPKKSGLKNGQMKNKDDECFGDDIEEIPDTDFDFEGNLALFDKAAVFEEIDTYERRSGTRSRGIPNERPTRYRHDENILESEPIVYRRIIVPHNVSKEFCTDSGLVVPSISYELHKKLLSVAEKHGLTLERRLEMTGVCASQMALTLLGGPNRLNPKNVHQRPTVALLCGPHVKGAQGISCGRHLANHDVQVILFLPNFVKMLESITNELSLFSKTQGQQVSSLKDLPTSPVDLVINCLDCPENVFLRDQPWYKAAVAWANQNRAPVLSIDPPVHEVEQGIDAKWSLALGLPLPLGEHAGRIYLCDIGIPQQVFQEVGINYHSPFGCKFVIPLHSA

Variants of: B1
Conditions: with vps25_human VPS25, Q9BRG1

Row | Variant | effect of a mutation on the interaction
1 | A17T | with no effect
2 | Q185R | with no effect

Variants of: B2
Conditions: with rnps1_human RNPS1, Q15287

Row | Variant | effect of a mutation on the interaction
3 | Y456H | with no effect
4 | T654I | with no effect
5 | S662A | with no effect
6 | R605Q | disrupting interaction strength
7 | S535N | with no effect

Variants of: B3
Conditions: with shc1_human SHC1, P29353

Row | Variant | effect of a mutation on the interaction
8 | E222K | with no effect

Variants of: B4
Conditions: with zn774_human ZNF774, Q6NX45

Row | Variant | effect of a mutation on the interaction
9 | L12H | disrupting interaction strength

Variants of: B5
Conditions: with edc3_human EDC3, Q96F86

Row | Variant | effect of a mutation on the interaction
10 | F234S | with no effect
